The source of these data is article PMC5221731.

This test concerns the target N-terminally hexahistidine-tagged wildtype Chinese hamster BiP, unmodified (non-AMPylated) (Chinese hamster) (UniProt G3I8R9). Nature of the test: native gel or EMSA. (Mobility shift assays separate free from complexed probe on a gel.)

As usually defined, the stoichiometry N is the number of molecules, sites or subunits per partner or assembly. As for “N-terminally hexahistidine-tagged wildtype Chinese hamster BiP, unmodified (non-AMPylated) (from UniProt G3I8R9 19-654) (natural protein)”, the stoichiometry N is 2.
